From ChEMBL document CHEMBL2074389, “Isolation of a multispecific organic anion and cardiac glycoside transporter from rat brain” (Proc Natl Acad Sci U S A, 1997) come the findings set out here.

What all share (assay type): functional, cell-based, Oocyte
Data set [1] deals with T1, Solute carrier organic anion transporter family member 1A4 (Rattus norvegicus, UniProt O35913).
T1 sequence (O35913 whole entry): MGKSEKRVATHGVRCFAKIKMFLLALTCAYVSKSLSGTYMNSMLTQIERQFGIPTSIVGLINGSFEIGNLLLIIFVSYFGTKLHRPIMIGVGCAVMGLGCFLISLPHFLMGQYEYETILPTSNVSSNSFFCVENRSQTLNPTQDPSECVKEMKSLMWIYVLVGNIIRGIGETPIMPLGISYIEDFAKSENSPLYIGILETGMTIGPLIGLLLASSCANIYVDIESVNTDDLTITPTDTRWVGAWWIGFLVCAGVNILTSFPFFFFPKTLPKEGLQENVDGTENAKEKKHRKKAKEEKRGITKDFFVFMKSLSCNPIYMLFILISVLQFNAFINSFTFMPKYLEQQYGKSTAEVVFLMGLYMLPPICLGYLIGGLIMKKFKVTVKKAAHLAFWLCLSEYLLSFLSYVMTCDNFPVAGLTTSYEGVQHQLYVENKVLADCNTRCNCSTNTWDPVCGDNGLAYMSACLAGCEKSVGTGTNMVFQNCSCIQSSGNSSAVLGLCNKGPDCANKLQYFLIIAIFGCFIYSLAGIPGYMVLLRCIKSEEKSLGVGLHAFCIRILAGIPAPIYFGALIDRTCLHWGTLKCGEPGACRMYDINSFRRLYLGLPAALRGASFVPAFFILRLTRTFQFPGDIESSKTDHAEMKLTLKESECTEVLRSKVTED
The experiment in a line: (§1) TP_TRANSPORTER: uptake in Xenopus laevis oocytes. The note with it: oocyte.

The target in data set [2] is T2, Solute carrier organic anion transporter family member 1A4 (SLCO1A4, OATP1A4) (Rattus norvegicus, UniProt O35913).
T2 sequence (O35913 whole entry): T1 sequence (O35913 whole entry)
Described as §1. Conditions: Xenopus laevis oocytes expressing the transporter.

Substrate in data set [3]: C[C@H]1O[C@@H](O[C@H]2[C@@H](O)C[C@H](O[C@H]3[C@@H](O)C[C@H](O[C@H]4CC[C@@]5(C)[C@H](CC[C@@H]6[C@@H]5C[C@@H](O)[C@]5(C)[C@@H](C7=CC(=O)OC7)CC[C@]65O)C4)O[C@@H]3C)O[C@@H]2C)C[C@H](O)[C@@H]1O
Described as §1.

Substrate in data set [4]: C[C@]12CC[C@@H]3c4ccc(O)cc4CC[C@H]3[C@@H]1CC[C@@H]2O[C@@H]1O[C@H](C(=O)O)[C@@H](O)[C@H](O)[C@H]1O
The data set is described as §1.

Substrate in data set [5]: C[C@]12CC[C@@H]3c4ccc(OS(=O)(=O)O)cc4CC[C@H]3[C@@H]1CCC2=O
The data set is described as §1.

For `CN(Cc1cnc2nc(N)nc(N)c2n1)c1ccc(C(=O)N[C@@H](CCC(=O)O)C(=O)O)cc1` [METHOTREXATE], the Activity result in data set [1] is “is not a substrate [-]”.
As to `C[C@@H]1O[C@@H](O[C@H]2C[C@@H](O)[C@]3(CO)[C@H]4[C@H](O)C[C@]5(C)[C@@H](C6=CC(=O)OC6)CC[C@]5(O)[C@@H]4CC[C@]3(O)C2)[C@H](O)[C@H](O)[C@H]1O` [OUABAIN], the Km in data set [2] was 470 µM.

B1: Solute carrier organic anion transporter family member 1A4 (Rattus norvegicus) (protein)
chain: T1 sequence (O35913 whole entry)
Turning to B1, the Km in data set [3] came to 0.24 µM; in data set [4] it was 3 µM; in data set [5], 11 µM.
